The stoichiometry N is a count of units in the complex or per binding partner.

Data set [1] concerns the molecule itself. Kind of data set: cross-linking; NFL1B at 1 and 2 mg/mL, 0.008% or 0.024% glutaraldehyde, SDS-PAGE.
Data set [2] deals with the molecule itself. Kind of data set: SEC + cross-linking; 250 uL of 2 mg/mL protein on Superose 6 Increase 10/300 GL in 5 mM HEPES pH 8.0, 0.5 mM EGTA, 2 mM DTT; samples from each peak cross-linked with 0.024% glutaraldehyde at 30 °C for 60 min, SDS-PAGE in 12.5% gel.

B1: NFL1B (neurofilament light chain protein, coil 1B, Ser133-Ile243) (domain or fragment, human, UniProt P07196 133-243, looked up)
chain: SRFRALYEQEIRDLRLAAEDATNEKQALQGEREGLEETLRNLQARYEEEVLSREDAEGRLMEARKGADEAALARAELEKRIDSLMDEISFLKKVHEEEIAELQAQIQYAQI
notes: neurofilament light chain protein (NFL), human, product of the NEFL gene, UniProt P07196, coil 1B, residues Ser133-Ile243; Dimer at 1-2 mg/mL; larger oligomers also at 5 mg/mL; also called NFL coil 1B domain; source: E. coli C41, purified from the fraction of soluble proteins (HisTrap HP, imidazole gradient)
For the protein B1, the “stoichiometry N” value in data set [1] came out at 2.

B2: NFL2 (neurofilament light chain protein, coil 2, Val249-Glu396) (domain or fragment, human, UniProt P07196 249-396, looked up)
chain: VTKPDLSAALKDIRAQYEKLAAKNMQNAEEWFKSRFTVLTESAAKNTDAVRAAKDEVSESRRLLKAKTLEIEACRGMNEALEKQLQELEDKQNADISAMQDTINKLENELRTTKSEMARYLKEYQDLLNVKMALDIEIAAYRKLLEGE
notes: neurofilament light chain protein (NFL), human, product of the NEFL gene, UniProt P07196, coil 2, residues Val249-Glu396; The monomer mass used for DSC is 16.9 kDa; also called NFL coil 2; source: E. coli C41, inclusion bodies solubilised in 8 M urea, purified (HisTrap HP), renatured by dialysis
With B2, the “stoichiometry N” value in data set [2] amounted to 2.

B3: NFL_(1B+2) (neurofilament light chain protein, coils 1B and 2, Ser133-Glu396) (domain or fragment, human, UniProt P07196 133-396, looked up)
chain: SRFRALYEQEIRDLRLAAEDATNEKQALQGEREGLEETLRNLQARYEEEVLSREDAEGRLMEARKGADEAALARAELEKRIDSLMDEISFLKKVHEEEIAELQAQIQYAQISVEMDVTKPDLSAALKDIRAQYEKLAAKNMQNAEEWFKSRFTVLTESAAKNTDAVRAAKDEVSESRRLLKAKTLEIEACRGMNEALEKQLQELEDKQNADISAMQDTINKLENELRTTKSEMARYLKEYQDLLNVKMALDIEIAAYRKLLEGE
notes: neurofilament light chain protein (NFL), human, product of the NEFL gene, UniProt P07196, coils 1B and 2, residues Ser133-Glu396; The monomer mass used for DSC is 30.4 kDa; source: E. coli C41, inclusion bodies solubilised in 8 M urea, purified (HisTrap HP), renatured by dialysis
With B3, in data set [2], the “stoichiometry N” value came out at 4.

B4: NFLROD (neurofilament light chain protein rod domain, coils 1A, 1B and 2, Ser80-Glu396) (domain or fragment, human, UniProt P07196 80-396, looked up)
chain: SNDLKSIRTQEKAQLQDLNDRFASFIERVHELEQQNKVLEAELLVLRQKHSEPSRFRALYEQEIRDLRLAAEDATNEKQALQGEREGLEETLRNLQARYEEEVLSREDAEGRLMEARKGADEAALARAELEKRIDSLMDEISFLKKVHEEEIAELQAQIQYAQISVEMDVTKPDLSAALKDIRAQYEKLAAKNMQNAEEWFKSRFTVLTESAAKNTDAVRAAKDEVSESRRLLKAKTLEIEACRGMNEALEKQLQELEDKQNADISAMQDTINKLENELRTTKSEMARYLKEYQDLLNVKMALDIEIAAYRKLLEGE
notes: neurofilament light chain protein (NFL), human, product of the NEFL gene, UniProt P07196, rod domain (coils 1A, 1B and 2), residues Ser80-Glu396; The monomer mass used for DSC is 36.6 kDa; also called NFL rod domain; full rod domain (1A+1B+2); source: E. coli C41, inclusion bodies solubilised in 8 M urea, purified (HisTrap HP), renatured by dialysis
In the case of B4, the “stoichiometry N” value in data set [2] was 4.

B5: NFL_(1A+1B) (neurofilament light chain protein, coils 1A and 1B, Ser80-Ile243) (domain or fragment, human, UniProt P07196 80-243, looked up)
chain: SNDLKSIRTQEKAQLQDLNDRFASFIERVHELEQQNKVLEAELLVLRQKHSEPSRFRALYEQEIRDLRLAAEDATNEKQALQGEREGLEETLRNLQARYEEEVLSREDAEGRLMEARKGADEAALARAELEKRIDSLMDEISFLKKVHEEEIAELQAQIQYAQI
notes: neurofilament light chain protein (NFL), human, product of the NEFL gene, UniProt P07196, coils 1A and 1B, residues Ser80-Ile243; The monomer mass used for DSC is 19.2 kDa; also called coil 1; source: E. coli C41, purified from the fraction of soluble proteins (HisTrap HP, imidazole gradient)
Regarding B5, in data set [2], the “stoichiometry N” value came out at 2.

(Values after paper PMC10813002, “Neurofilament Light Protein Rod Domain Exhibits Structural Heterogeneity” (Biomolecules, 2024).)
